Assay [1] concerns the target T1, rat PAI-1 (rat, UniProt P20961 24-402, n-terminal biotin label (in the P-ELISA)).
T1 sequence (looked up): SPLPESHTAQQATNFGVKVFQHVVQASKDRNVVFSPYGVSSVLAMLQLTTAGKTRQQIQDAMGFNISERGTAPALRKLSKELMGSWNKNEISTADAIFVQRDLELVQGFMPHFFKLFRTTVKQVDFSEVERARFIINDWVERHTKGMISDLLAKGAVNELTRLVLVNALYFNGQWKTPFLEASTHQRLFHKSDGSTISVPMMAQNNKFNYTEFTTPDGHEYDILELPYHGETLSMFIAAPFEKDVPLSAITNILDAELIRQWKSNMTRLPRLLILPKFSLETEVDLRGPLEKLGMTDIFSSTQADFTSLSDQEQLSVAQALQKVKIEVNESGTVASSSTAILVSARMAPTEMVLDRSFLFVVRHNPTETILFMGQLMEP
Briefly: P-ELISA: biotin-labeled PAI-1 on streptavidin/Neutravidin coated wells, HRP-conjugated secondary antibody, O.D. 450. Target taken from the title printed in the panel; the legend paragraph 67 names FIG. 12C as mouse. As for the experimental part:
All reagents are brought to room temperature (18-23° C.) and dilutions are made in Wash Buffer (1×TBS, 0.1% BSA, 0.05% Tween). Briefly, protocol steps are as follows: [0546] Add 100 μL of Neutravidin™ Pierce#31000 (0.5 μg/ml in TBS) to 96-well Immulon-4 plates. Incubate 1 hour at room temperature (RT). [0547] Wash wells 3 times with 200 μl Wash Buffer. [0548] Add 50 μL of biotinylated biomolecule (0.06 nM) Incubate 1 hour at RT. [0549] Wash plate 3 times in Wash Buffer. [0550] Add 100 μL of 1° Ab Incubate 30 min RT [0551] Wash plate 3 times in Wash Buffer. [0552] Add 50 μL of […] (1:10,000) Incubate 30 min RT [0553] Wash plate 4 times in Wash Buffer. [0554] Add 100 μl TMB Reagent (substrate). Incubate at room temperature. [0555] Add 100 μL of 2 M Sulfuric Acid to stop development of the substrate. [0556] Plates were read using a […] filter with a 615-620 nm filter as the reference.
Binding of CT140 to rat, mouse, rabbit and human PAI-1 was determined by P-ELISA (see FIG. 12). The relative affinity of CT140 is human=rabbit>mouse>rat (FIG. 12A, FIG. 12B, FIG. 12C and FIG. 12D, respectively).
Background: ELISA stands for enzyme-linked immunosorbent assay.

Assay [2] addresses T2, mouse PAI-1 (mouse, UniProt P22777 23-402, limits assumed, n-terminal biotin label (in the P-ELISA)).
T2 construct: also called murine PAI-1
T2 sequence (looked up): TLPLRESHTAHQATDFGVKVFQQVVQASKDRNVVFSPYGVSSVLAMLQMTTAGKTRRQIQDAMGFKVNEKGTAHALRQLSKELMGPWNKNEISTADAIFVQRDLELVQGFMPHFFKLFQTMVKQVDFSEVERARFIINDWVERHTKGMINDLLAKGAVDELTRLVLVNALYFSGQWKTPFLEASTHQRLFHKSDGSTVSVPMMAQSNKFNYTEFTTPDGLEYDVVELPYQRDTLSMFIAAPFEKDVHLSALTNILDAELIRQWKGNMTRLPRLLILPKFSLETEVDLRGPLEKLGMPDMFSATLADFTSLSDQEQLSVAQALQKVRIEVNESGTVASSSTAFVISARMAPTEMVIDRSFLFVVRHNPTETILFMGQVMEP
Briefly: P-ELISA.

Assay [3] has as its target T3, PAI-1 (antigen of Example 11, species not stated).
T3 construct: Its method text reads as if hP-1 and mP-1 were the antigens run over captured antibody, that is human and mouse PAI-1
Briefly: SPR-type biosensor, antibody captured on anti-human IgG surface at 5 densities, 25 C, global 1:1 fit. How it is done:
This experiment was conducted to measure the binding constants for hP-1 (humanized mAb CT140) and mP-1 (mouse antibody 33B8).
hP-1 was captured onto an anti-human IgG surface (Cat-tag goat mAb) at 5 different surface densities. hP-1 and mP-1 were diluted to a starting concentration of 100 nM and tested in a 3-fold dilution series using PBS with 0.005% Tween-20 and 0.1 mg/ml BSA. Binding data were collected at 25° C. The association phase was monitored for 5 minutes and the dissociation phase was monitored for 2.5 hours. The response data for each antigen over the 5 different density mAb surfaces were globally fit to a simple 1:1 interaction model. A fit to the data was determined (data not shown) a binding constants were determined at 25° C.

T3 sequence (P05121 24-402): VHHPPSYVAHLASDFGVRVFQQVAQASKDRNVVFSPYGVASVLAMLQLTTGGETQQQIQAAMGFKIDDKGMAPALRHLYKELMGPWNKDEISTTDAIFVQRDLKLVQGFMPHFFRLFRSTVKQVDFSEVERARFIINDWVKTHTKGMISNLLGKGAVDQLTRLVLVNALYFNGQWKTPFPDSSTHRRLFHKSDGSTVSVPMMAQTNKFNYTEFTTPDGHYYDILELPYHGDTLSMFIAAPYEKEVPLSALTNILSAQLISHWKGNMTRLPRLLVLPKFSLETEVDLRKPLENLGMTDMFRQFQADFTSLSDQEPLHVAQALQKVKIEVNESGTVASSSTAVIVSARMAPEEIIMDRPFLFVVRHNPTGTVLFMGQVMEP

B1: CT140 (humanized version of murine monoclonal antibody 33B8, IgG4 with the hinge of IgG1) (antibody, V domains shown)
VH: QVQLVQSGAEVKKPGASVKVSCKASGYTFTNYGMNWVRQAPGQGLEWMGWINTYTGEPTYTDDFKGRFTMTLDTSISTAYMELSRLRSDDTAVYYCAKDVSGFVFDYWGQGTLVTVSS
VL: DIVMTQSPDSLAVSLGERATINCKSSQSLLNIIKQKNCLAWYQQKPGQPPKLLIYWASTRESGVPDRFSGSGSGTDFTLTISSLQAEDVAVYYCQQYYSYPYTFGQGTKLEIKR
notes: also called hP-1; humanized mAb CT140
For orientation: Kd means the free concentration of one partner at which half of the binding sites on the other are occupied at equilibrium, for simple one-to-one binding. Low values mean tighter binding, high ones weaker binding. The term koff denotes the rate constant with which the complex falls apart. A lower koff goes with a long-lived complex. What is called kon is the second-order rate constant of association. With B1, in assay [1], the binding result is recorded as “binds”. Besides, the “fold greater affinity relative to the parent mouse anti-PAI-1” value in assay [2] was more than 10 fold. Besides, in assay [3], the Kd was found to be 0.015 nM, the koff came out at 8e-06 s⁻¹ and the kon is 530000 M⁻¹ s⁻¹.
